Key:
[1] = molecular target: T1, human VEGFA-121 (VEGF-A-121-His) (human, UniProt P15692-9 27-147); experiment: SPR (Biacore T200), VEGF-A-121-His captured by anti-His antibody, bispecific antibody as analyte, 1:1 Langmuir
T1 construct: Captured on the chip through an anti-His antibody; not shown: His tag
T1 sequence (looked up): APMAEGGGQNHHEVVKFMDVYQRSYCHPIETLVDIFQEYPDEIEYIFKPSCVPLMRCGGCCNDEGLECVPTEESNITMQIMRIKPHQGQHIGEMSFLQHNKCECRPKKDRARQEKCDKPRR
Method: Around 10000 (RU) of anti His antibody (1 μg/ml anti His antibody; Order Code: 28995056; GE Healthcare Bio-Sciences AB, Sweden) were coupled on a Series S CM5 chip (GE Healthcare BR-1005-30) at pH 5.0 by using an amine coupling kit supplied by the GE Healthcare. HBS-N (10 mM HEPES, 150 mM NaCl pH 7.4, GE Healthcare) was used as running buffer during the immobilization procedure. For the following kinetic characterization, sample and running buffer was PBS-T (10 mM phosphate buffered saline including 0.05% Tween20) at pH 7.4. The flow cell was set to 25° C.—and the sample block set to 12° C.—and primed with running buffer twice prior to kinetic characterization.
(§1) Binding of the multispecific antibodies to their respective target antigens, i.e. ANG2 and VEGF, was assessed by Biacore® as described in the general methods section.

[2] = molecular target: T2, human Ang-2-RBD-Fc (human, UniProt O15123 275-496, limits assumed); experiment: SPR (Biacore T200), bispecific antibody captured by anti-human F(ab')2, Ang2-RBD-Fc as analyte, 1:1 Langmuir
T2 construct: domain: RBD; Analyte in solution; not shown: Fc part
T2 sequence (looked up): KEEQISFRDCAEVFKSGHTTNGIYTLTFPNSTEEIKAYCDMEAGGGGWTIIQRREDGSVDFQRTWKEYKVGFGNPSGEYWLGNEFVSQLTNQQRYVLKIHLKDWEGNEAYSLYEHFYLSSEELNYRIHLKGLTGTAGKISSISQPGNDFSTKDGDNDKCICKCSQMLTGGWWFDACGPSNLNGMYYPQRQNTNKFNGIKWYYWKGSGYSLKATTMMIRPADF
Method: (§2) Binding of indicated antibodies to human Ang-2-RBD-Fc was investigated by surface plasmon resonance using a BIACORE® T200 instrument (GE Healthcare). Around 8000 (RU) of goat anti human F(ab′)₂ (10 μg/ml anti human F(ab)′₂; Order Code: 28958325; GE Healthcare Bio-Sciences AB, Sweden) were coupled on a Series S CMS chip (GE Healthcare BR-1005-30) at pH 5.0 by using an amine coupling kit supplied by the GE Healthcare. HBS-N (10 mM HEPES, 150 mM NaCl pH 7.4, GE Healthcare) was used as running buffer during the immobilization procedure. For the following kinetic characterization, sample and running buffer was PBS-T (10 mM phosphate buffered saline including 0.05% Tween20) at pH 7.4. The flow cell was set to 25° C.—and the sample block set to 12° C.—and primed with running buffer twice prior to kinetic characterization.
(§3) The bispecific antibody was captured by injecting a 5 nM solution for 25 sec at a flow of 5 μl/min. The association was measured by injection of human Ang2-RBD-Fc in various concentrations in solution for 120 sec at a flow of 30 μl/min starting with 100 nM in 1:3 serial dilutions. The dissociation phase was monitored for up to 180 sec and triggered by switching from the sample solution to running buffer. The surface was regenerated by 60 sec washing with a Glycine pH 2.1 solution at a flow rate of 30 μl/min. Bulk refractive index differences were corrected by subtracting the response obtained from a goat anti human F(ab′)₂ surface. Blank injections are also subtracted (=double referencing). For calculation of apparent KD the Langmuir 1:1 model was used.
as §1

[3] = molecular target: T2, human Ang-2-RBD-Fc; experiment: SPR (Biacore T200), bispecific antibody captured by anti-human F(ab')2, Ang2-RBD-Fc as analyte, 1:1 Langmuir, apparent KD
Method: as §2, §3

B1: Ang2VEGF-0454 (bispecific antibody, human IgG1, kappa)
light 1: QPGLTQPPSVSVAPGQTARITCGGNNIGSKSVHWYQQKPGQAPVLVVYDDSDRPSGIPERFSGSNSGNTATLTISRVEAGDEADYYCQVWDSSSDHYVFGTGTKVTVLRTVAAPSVFIFPPSDEQLKSGTASVVCLLNNFYPREAKVQWKVDNALQSGNSQESVTEQDSKDSTYSLSSTLTLSKADYEKHKVYACEVTHQGLSSPVTKSFNRGEC
heavy 1: not shown
light 2: DIQMTQSPSSLSASVGDRVTITCSASQDISNYLNWYQQKPGKAPKVLIYFTSSLHSGVPSRFSGSGSGTDFTLTISSLQPEDFATYYCQQYSTVPWTFGQGTKVEIKSSASTKGPSVFPLAPSSKSTSGGTAALGCLVKDYFPEPVTVSWNSGALTSGVHTFPAVLQSSGLYSLSSVVTVPSSSLGTQTYICNVNHKPSNTKVDKKVEPKSC
heavy 2: not shown
notes: also called Ang2VEGF-0454-0002; Ang2VEGF-0454-0002 (control)
[1]
  Kd: 4 nM
  koff: 8.65e-05 s⁻¹
  kon: 20400 M⁻¹ s⁻¹
[2]
  koff: 0.0182 s⁻¹
  kon: 1.08e+07 M⁻¹ s⁻¹
[3]
  Kd: 2 nM

B2: Ang2VEGF-0462 (bispecific antibody, human IgG1, kappa)
light 1: QPGLTQPPSVSVAPGQTARITCGGNNIGSKSVHWYQQKPGQAPVLVVYDDSDRPSGIPERFSGSNSGNTATLTISRVEAGDEADYYCQVWDSSSDHYVFGTGTKVTVLRTVAAPSVFIFPPSDKRLKSGTASVVCLLNNFYPREAKVQWKVDNALQSGNSQESVTEQDSKDSTYSLSSTLTLSKADYEKHKVYACEVTHQGLSSPVTKSFNRGEC
heavy 1: not shown
light 2: DIQMTQSPSSLSASVGDRVTITCSASQDISNYLNWYQQKPGKAPKVLIYFTSSLHSGVPSRFSGSGSGTDFTLTISSLQPEDFATYYCQQYSTVPWTFGQGTKVEIKSSASTKGPSVFPLAPSSKSTSGGTAALGCLVKDYFPEPVTVSWNSGALTSGVHTFPAVLQSSGLYSLSSVVTVPSSSLGTQTYICNVNHKPSNTKVDKKVEPKSC
heavy 2: not shown
notes: CrossMAb CH1-CL, knob-into-hole with S354C/Y349C; also called Ang2VEGF-0462-0002
[1]
  Kd: 4 nM
  koff: 7.52e-05 s⁻¹
  kon: 21200 M⁻¹ s⁻¹
[2]
  koff: 0.0252 s⁻¹
  kon: 1.21e+07 M⁻¹ s⁻¹
[3]
  Kd: 2 nM

B3: Ang2VEGF-0460 (bispecific antibody, human IgG1, kappa)
light 1: QPGLTQPPSVSVAPGQTARITCGGNNIGSKSVHWYQQKPGQAPVLVVYDDSDRPSGIPERFSGSNSGNTATLTISRVEAGDEADYYCQVWDSSSDHYVFGTGTKVTVLRTVAAPSVFIFPPSDEQLKSGTASVVCLLNNFYPREAKVQWKVDNALQSGNSQESVTEQDSKDSTYSLSSTLTLSKADYEKHKVYACEVTHQGLSSPVTKSFNRGEC
heavy 1: not shown
light 2: DIQMTQSPSSLSASVGDRVTITCSASQDISNYLNWYQQKPGKAPKVLIYFTSSLHSGVPSRFSGSGSGTDFTLTISSLQPEDFATYYCQQYSTVPWTFGQGTKVEIKSSASTKGPSVFPLAPSSKSTSGGTAALGCLVKDYFPEPVTVSWNSGALTSGVHTFPAVLQSSGLYSLSSVVTVPSSSLGTQTYICNVNHKPSNTKVDEKVEPKSC
heavy 2: not shown
notes: CrossMAb CH1-CL, knob-into-hole with S354C/Y349C; also called Ang2VEGF-0460-0002
[1]
  Kd: 6 nM
  koff: 8.18e-05 s⁻¹
  kon: 14200 M⁻¹ s⁻¹
[2]
  koff: 0.0163 s⁻¹
  kon: 8.76e+06 M⁻¹ s⁻¹
[3]
  Kd: 2 nM

B4: Ang2VEGF-0459 (bispecific antibody, human IgG1, kappa)
light 1: QPGLTQPPSVSVAPGQTARITCGGNNIGSKSVHWYQQKPGQAPVLVVYDDSDRPSGIPERFSGSNSGNTATLTISRVEAGDEADYYCQVWDSSSDHYVFGTGTKVTVLRTVAAPSVFIFPPSDEQLKSGTASVVCLLNNFYPREAKVQWKVDNALQSGNSQESVTEQDSKDSTYSLSSTLTLSKADYEKHKVYACEVTHQGLSSPVTKSFNRGEC
heavy 1: not shown
light 2: DIQMTQSPSSLSASVGDRVTITCSASQDISNYLNWYQQKPGKAPKVLIYFTSSLHSGVPSRFSGSGSGTDFTLTISSLQPEDFATYYCQQYSTVPWTFGQGTKVEIKSSASTKGPSVFPLAPSSKSTSGGTAALGCLVEDYFPEPVTVSWNSGALTSGVHTFPAVLQSSGLYSLSSVVTVPSSSLGTQTYICNVNHKPSNTKVDKKVEPKSC
heavy 2: not shown
notes: CrossMAb CH1-CL, knob-into-hole with S354C/Y349C; also called Ang2VEGF-0459-0002
[1]
  Kd: 4 nM
  koff: 7.19e-05 s⁻¹
  kon: 17000 M⁻¹ s⁻¹
[2]
  koff: 0.0199 s⁻¹
  kon: 8.8e+06 M⁻¹ s⁻¹
[3]
  Kd: 2 nM
